Assay results as given in paper PMC12212138.

Tests used:
[1] = target: T1, PARP4 BRCT-WGR-CAT WT (human) (UniProt Q9UKK3); assay: EMSA; settings: FP: 50 mM Tris pH 7.5, 50 mM NaCl, 1 mM MgCl2, 0.05% NP40, 2 mM DTT, 5% glycerol, 25 ug/ml BSA, room temp 30 min; EMSA: 50 mM Tris pH 7.5, 50 mM NaCl, 4% …
T1 sequence: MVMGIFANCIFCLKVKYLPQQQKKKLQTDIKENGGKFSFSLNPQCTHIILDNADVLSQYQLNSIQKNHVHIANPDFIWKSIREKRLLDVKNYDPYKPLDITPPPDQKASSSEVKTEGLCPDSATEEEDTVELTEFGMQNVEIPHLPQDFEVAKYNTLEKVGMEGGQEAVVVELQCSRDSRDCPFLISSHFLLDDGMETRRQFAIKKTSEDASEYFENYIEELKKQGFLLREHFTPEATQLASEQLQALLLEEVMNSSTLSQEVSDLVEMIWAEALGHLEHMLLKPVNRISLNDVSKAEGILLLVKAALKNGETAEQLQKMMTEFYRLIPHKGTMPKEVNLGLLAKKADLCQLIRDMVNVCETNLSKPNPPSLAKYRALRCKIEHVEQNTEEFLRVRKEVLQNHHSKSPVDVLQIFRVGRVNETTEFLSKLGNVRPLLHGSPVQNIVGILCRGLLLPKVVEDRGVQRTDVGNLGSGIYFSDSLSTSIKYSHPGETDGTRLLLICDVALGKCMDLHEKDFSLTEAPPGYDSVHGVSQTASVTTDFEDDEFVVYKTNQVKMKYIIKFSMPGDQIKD

[2] = target: T2, PARP4 WGR-CAT (human) (UniProt Q9UKK3); assay: FP; settings: FP: 50 mM Tris pH 7.5, 50 mM NaCl, 1 mM MgCl2, 0.05% NP40, 2 mM DTT, 5% glycerol, 25 ug/ml BSA, room temp 30 min; EMSA: 50 mM Tris pH 7.5, 50 mM NaCl, 4% …
T2 sequence: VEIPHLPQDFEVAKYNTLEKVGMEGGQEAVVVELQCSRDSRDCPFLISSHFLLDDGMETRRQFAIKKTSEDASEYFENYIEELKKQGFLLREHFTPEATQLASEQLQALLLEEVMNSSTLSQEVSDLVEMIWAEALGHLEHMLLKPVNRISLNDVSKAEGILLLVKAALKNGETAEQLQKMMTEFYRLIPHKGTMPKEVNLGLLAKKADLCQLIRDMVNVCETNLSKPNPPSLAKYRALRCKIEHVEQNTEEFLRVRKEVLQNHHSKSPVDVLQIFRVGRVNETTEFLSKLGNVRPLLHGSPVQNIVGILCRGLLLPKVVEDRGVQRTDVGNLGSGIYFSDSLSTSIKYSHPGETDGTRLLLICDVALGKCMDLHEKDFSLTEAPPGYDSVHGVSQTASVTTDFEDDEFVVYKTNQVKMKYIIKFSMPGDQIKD

| Sequence | Kd [1] | Kd [2] |
| --- | --- | --- |
| CCGCGGGC / GCUCAGCGG [Probe 3] | 11 µM | – |
| CCGCGGGC / GCUCGCGG [Probe 4] | 7 µM | – |
| GGCUGGCUUUAGCUCAGCGGUUACUUCGCGUGUCAUCAAACCACCUCUCUGGGUUGUUCGAGACCCGCGGGCGCUCUCCAGCCCUCUU [vtRNA1-3] | – | 93 µM |
